B1: TβRI-Renilla luciferase 8 (Rluc8) fusion protein (receptor, UniProt P36897 34-503, looked up)
chain: LQCFCHLCTKDNFTCVTDGLCFVSVTETTDKVIHNSMCIAEIDLIPRDRPFVCAPSSKTGSVTTTYCCNQDHCNKIELPTTVKSSPGLGPVELAAVIAGPVCFVCISLMLMVYICHNRTVIHHRVPNEEDPSLDRPFISEGTTLKDLIYDMTTSGSGSGLPLLVQRTIARTIVLQESIGKGRFGEVWRGKWRGEEVAVKIFSSREERSWFREAEIYQTVMLRHENILGFIAADNKDNGTWTQLWLVSDYHEHGSLFDYLNRYTVTVEGMIKLALSTASGLAHLHMEIVGTQGKPAIAHRDLKSKNILVKKNGTCCIADLGLAVRHDSATDTIDIAPNHRVGTKRYMAPEVLDDSINMKHFESFKRADIYAMGLVFWEIARRCSIGGIHEDYQLPYYDLVPSDPSVEEMRKVVCEQKLRPNIPNRWQSCEALRVMAKIMRECWYANGAARLTALRIKKTLSQLSQQEGIKM
notes: TGFβ receptor type I; In the homomer BRET row the second copy of TβRI carried YFP (TβRI-YFP) instead of Rluc8; also called TβRI-Rluc8; source: HEK293T, transfected, in intact cells

Assays:
[1] = molecular target: B1; assay: FRET or BRET; BRET donor saturation in intact HEK293T cells; fixed amount of TβRI-Rluc8, increasing amounts of YFP fusion; no TGFβ; details: partners not purified
[2] = molecular target: the molecule itself; assay: as above

BRET50 [1]	Binder	BRET50 [2]
0.046 ± 0.008	TβRII-YFP (receptor, UniProt P37173 23-567, looked up, TGFβ receptor type II; also called TβRII-yellow fluorescent protein fusion; source: HEK293T, transfected, in intact cells) TIPPHVQKSVNNDMIVTDNNGAVKFPQLCKFCDVRFSTCDNQKSCMSNCSITSICEKPQEVCVAVWRKNDENITLETVCHDPKLPYHDFILEDAASPKCIMKEKKKPGETFFMCSCSSDECNDNIIFSEEYNTSNPDLLLVIFQVTGISLLPPLGVAISVIIIFYCYRVNRQQKLSSTWETGKTRKLMEFSEHCAIILEDDRSDISSTCANNINHNTELLPIELDTLVGKGRFAEVYKAKLKQNTSEQFETVAVKIFPYEEYASWKTEKDIFSDINLKHENILQFLTAEERKTELGKQYWLITAFHAKGNLQEYLTRHVISWEDLRKLGSSLARGIAHLHSDHTPCGRPKMPIVHRDLKSSNILVKNDLTCCLCDFGLSLRLDPTLSVDDLANSGQVGTARYMAPEVLESRMNLENVESFKQTDVYSMALVLWEMTSRCNAVGEVKDYEPPFGSKVREHPCVESMKDNVLRDRGRPEIPSFWLNHQGIQMVCETLTECWDHDPEARLTAQCVAERFSELEHLDRLSGRSCSEEKIPEDGSLNTTK	–
–	B1	1.34 ± 0.185
0.031 ± 0.01	GPR50Δ4-YFP (receptor, human, UniProt Q13585 1-617, looked up, also called GPR50-YFP; source: HEK293T, transfected, in intact cells) MGPTLAVPTPYGCIGCKLPQPEYPPALIIFMFCAMVITIVVDLIGNSMVILAVTKNKKLRNSGNIFVVSLSVADMLVAIYPYPLMLHAMSIGGWDLSQLQCQMVGFITGLSVVGSIFNIVAIAINRYCYICHSLQYERIFSVRNTCIYLVITWIMTVLAVLPNMYIGTIEYDPRTYTCIFNYLNNPVFTVTIVCIHFVLPLLIVGFCYVRIWTKVLAARDPAGQNPDNQLAEVRNFLTMFVIFLLFAVCWCPINVLTVLVAVSPKEMAGKIPNWLYLAAYFIAYFNSCLNAVIYGLLNENFRREYWTIFHAMRHPIIFFSGLISDIREMQEARTLARARAHARDQAREQDRAHACPAVEETPMNVRNVPLPGDAAAGHPDRASGHPKPHSRSSSAYRKSASTHHKSVFSHSKAASGHLKPVSGHSKPASGHPKSATVYPKPASVHFKADSVHFKGDSVHFKPDSVHFKPASSNPKPITGHHVSAGSHSKSAFSAATSHPKPIKPATSHAEPTTADYPKPATTSHPKPTAADNPELSASHCPEIPAIAHPVSDDSDLPESASSPAAGPTKPAASQLESDTIADLPDPTVVTTSTNDYHDVVVIDVEDDPDEMAV	–

— article PMC5865211, “The orphan GPR50 receptor promotes constitutive TGFβ receptor signaling and protects against cancer development” (Nature Communications, 2018)
